In paper PMC8041999 one finds percent of the top avidity, percent of the avidity of the top binding allomorph and percent of the maximum avidity data, which are given here for 2 substances.

Common to all, as to assay: multiplexed single-antigen bead assay (Luminex); 5 µg PE-conjugated KIR tetramers, 30 min at room temperature, with LABScreen HLA Class I Single Antigen beads; MFI normalised to the highest value of each experiment
Assay [1] deals with bead-bound HLA-C*17:01 presenting a broad repertoire of peptides (human).
Assay [2] concerns the target bead-bound HLA-C*14:02 presenting a broad repertoire of peptides (human).
Assay [3] deals with bead-bound HLA-C*15:02 presenting a broad repertoire of peptides (human).

Chain of soluble tetrameric form of KIR2DL2 (PE-conjugated KIR tetramer) (P43627 22-245): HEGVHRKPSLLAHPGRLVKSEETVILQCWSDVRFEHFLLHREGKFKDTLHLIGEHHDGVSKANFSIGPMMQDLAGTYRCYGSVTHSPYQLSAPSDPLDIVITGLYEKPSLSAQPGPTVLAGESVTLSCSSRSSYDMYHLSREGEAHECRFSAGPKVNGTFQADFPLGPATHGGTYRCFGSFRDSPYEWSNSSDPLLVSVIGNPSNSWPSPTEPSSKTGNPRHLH
Chain of soluble tetrameric form of KIR2DL3 (PE-conjugated KIR tetramer) (P43628 22-245): as the sequence (P43627 22-245) above, with R16P, E35Q, C148R, I200T, K216E counted along it

Regarding “soluble tetrameric form of KIR2DL2 (PE-conjugated KIR tetramer) (from UniProt P43627 22-245) (receptor)”, the percent of the top avidity in assay [1] and in assay [3] was 55% in each case. Further, the percent of the avidity of the top binding allomorph in assay [2] was determined as 14.7%.
In the case of “soluble tetrameric form of KIR2DL3 (PE-conjugated KIR tetramer) (from UniProt P43628 22-245) (receptor)”, the percent of the maximum avidity in assay [2] came out at 43%.
